Like-named read-outs stand apart in the source and are kept apart here.
How the values were obtained:
[1] = target: feline herpes virus-1 (FHV-1) viral particle, K1 strain
[2] = target: feline herpes virus-1 (FHV-1) viral particle, K1 strain; remark: listed apart in the source

Row | Binder | Minimum Effective Concentration for Neutralization [1] [µg/mL] | Minimum Effective Concentration for Neutralization [2] [µg/mL]
1 | anti-FHV-1 chimeric antibody FH2 (antibody, V domains shown) VH: QVTLKESGPGILQPSQTLSLTCSFSGFSLSTSGMGAGWIRQPSGKGLEWLAHIWWDDVKRYNPALKSRLTISKDTSSSQVFLKIASVDTADTATYFCVRSQIYFDYDGAWFPFWGQGTLVTVSA VL: DIVLTQSPATLSVTPGDSVSLSCRASQSISNNLHWYQQKSHESPRLLIKYASQSISGIPSRFSGSGSGTDFTLSINSVETEDFGMYFCQQSNSWPHTFGAGTKLELKS | 1.95 | –
2 | mouse monoclonal antibody JH2 (antibody, V domains shown) VH: QVTLKESGPGILQPSQTLSLTCSFSGFSLSTSGMGAGWIRQPSGKGLEWLAHIWWDDVKRYNPALKSRLTISKDTSSSQVFLKIASVDTADTATYFCVRSQIYFDYDGAWFPFWGQGTLVTVSA VL: DIVLTQSPATLSVTPGDSVSLSCRASQSISNNLHWYQQKSHESPRLLIKYASQSISGIPSRFSGSGSGTDFTLSINSVETEDFGMYFCQQSNSWPHTFGAGTKLELK | 1.25 | 0.39
